Assay [1] deals with T1, human CD40 on the cell surface (human, UniProt P25942 21-277).
T1 construct: whole, on cells; also called cell surface CD40; Jurkat-CD40 cells
Kind of assay: flow cytometry on Jurkat cells overexpressing human CD40, PE anti-human IgG, MFI. The method, then: To evaluate their binding affinity to cell surface CD40, chimeric anti-CD40 monospecific antibodies were tested in Jurkat cell lines that overexpressed CD40 by FACS. A total number of 1×10⁵ Jurkat-CD40 cells in each well were incubated with 10-fold serially diluted antibodies starting from 100 nM for 30 minutes at 4° C. in FACS buffer. After wash by FACS buffer, PE conjugated-anti-human IgG antibody was added to each well and incubated at 4 °C for 30 minutes. After wash, MFI of PE was evaluated by MACSQuant Analyzer 16.
On the technique in general: Flow cytometry measures light scatter and fluorescence of single cells or particles in a stream.

For assay [2], the target named is T1, human CD40 on the cell surface. Nature of the assay: flow cytometry on human monocyte-derived dendritic cells (CD11c+ gate), PE anti-human IgG Fc, MFI.
The target in assay [3] is T2, cynomolgus CD40-His protein (cynomolgus, UniProt G7PG38 21-193).
T2 construct: Recombinant His-tagged protein; also called cyno CD40 antigen; not shown: His tag
Nature of the assay: ELISA, coated cynomolgus CD40-His. On the procedure:
(§1) The binding affinity of these clones to cynomolgus CD40 was also tested. Microtiter plates were coated with cynomolgus CD40-His protein at 1.0 μg/ml in PBS, 100 μl/well at 4 °C overnight, then blocked with 150 μl/well of 1% BSA. Ten-fold dilutions of 42p155, 2p834, 2p931, 42p655, 2p1294, 2p957, 42p495, 3p78, 2p415, 2p442, 2p551, 2p80 and 2p1130 antibodies starting from 100 nM were added to each well and incubated for 1 hour at RT. The plates were washed with PBS/Tween and then incubated with Anti-Human IgG (H&L) (GOAT) Antibody Peroxidase Conjugated for 30 mins at RT. After washing, the plates were developed with TMB substrate and analyzed by spectrophotometer at OD 450 nm. As shown in FIG. 1B and Table 2, all these clones bound to cynomolgus CD40 at high activity, showing good cross-reactivity between human and cynomolgus CD40 proteins.

The target in assay [4] is T3, human CD40-His protein (human, UniProt P25942 21-193).
T3 construct: Recombinant His-tagged protein; also called human CD40-his tag; recombinant CD40 protein; not shown: His tag
Nature of the assay: SPR (Biacore T200), antibody captured on Protein A. The method, then:
The binding of the humanized 42pl55 and 2p442 antibodies to recombinant human CD40 protein (human CD40-his tag) was tested by Biacore and Octet, respectively, using a capture method.
For humanized 42pl55 monoclonal antibodies, 42p155z2 and 42p155z3 were captured using Protein A chip. A serial dilution of human CD40-his tag protein was injected over captured antibody for 3 mins at a flow rate of 10 μl/min. The antigen was allowed to dissociate for 6 min. All the experiments were carried out on a Biacore T200. Data analysis was carried out using Biacore T200 evaluation software.
For orientation: SPR reads the build-up and loss of mass on a sensor chip optically.

Assay [5] concerns the target T3, human CD40-His protein. Nature of the assay: ELISA, coated human CD40-His. On the procedure: as §1, with “Briefly, microtiter” for “The binding affinity of these clones to cynomolgus CD40 was also tested. Microtiter”, “human” for “cynomolgus”, “4° C.” for “4 °C”, “nm.” for “nm. As shown in FIG. 1B and Table 2, all these clones bound to cynomolgus CD40 at high activity, showing good cross-reactivity between human and cynomolgus CD40 proteins.”
Background: An ELISA detects its analyte on a solid surface through an enzyme-linked reagent.

Positions count from the first letter of the chain named.

In general, EC50 (read off the curve) refers to the midpoint of the concentration-response curve. The term EC50 denotes the midpoint of the concentration-response curve. One may read the Kd as the equilibrium constant for the complex coming apart. A low value points to higher affinity. As usually defined, the koff is a measure of how fast the partners let go of each other. Low values mean slow dissociation, high ones fast dissociation. As a reminder, the kon is a measure of how fast the partners come together. The low end stands for slower complex formation, the high end for faster complex formation.

T1 sequence (P25942 21-277): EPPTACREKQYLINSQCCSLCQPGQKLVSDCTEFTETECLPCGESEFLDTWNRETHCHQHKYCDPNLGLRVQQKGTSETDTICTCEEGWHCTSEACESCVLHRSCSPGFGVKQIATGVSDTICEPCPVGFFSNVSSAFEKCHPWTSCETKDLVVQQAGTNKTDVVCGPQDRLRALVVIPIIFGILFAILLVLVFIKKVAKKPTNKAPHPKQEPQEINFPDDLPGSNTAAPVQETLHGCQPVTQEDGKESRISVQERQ
T3 sequence (P25942 21-193 limits assumed): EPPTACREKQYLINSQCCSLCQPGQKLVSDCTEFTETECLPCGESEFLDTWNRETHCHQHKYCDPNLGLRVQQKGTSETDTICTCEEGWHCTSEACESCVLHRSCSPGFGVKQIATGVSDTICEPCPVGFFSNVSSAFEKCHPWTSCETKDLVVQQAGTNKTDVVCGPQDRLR

B1: 42p495 chimeric monospecific antibody (antibody, V domains shown)
VH: PVQLVESGGNLVQPGGSLRLSCVAPGFTSRNSAMSWVRQAPGKGLEWVSTIYSGKSNTDYADSVKGRFTISTDNAKNTLYLHMNKLKSEDTAVYYCAKGAASDWYVPRDYWGQGTQVTVSS
notes: VHH-chimeric monospecific antibody (cAb), detected with anti-human IgG
As for B1, the “EC50 (read off the curve)” value in assay [1] was approximately 2 nM.

B2: 2p957 chimeric monospecific antibody (antibody, V domains shown)
VH: PVQLVESGGGLVQPGGSLRLSCAASGFSFRNYIMSWVRQAPGKGLEWLSSITNSGGITSYTESVKGRFTISRDNAKNTLYLQMNSLKPEDTAVYYCAQGGSDNYYRGSWGQGTQVTVSS
notes: as for B1
For the molecule B2, the “EC50 (read off the curve)” value in assay [1] is approximately 3 nM.

B3: 2p834 anti-Claudin 18.2/CD40 bispecific antibody (bispecific antibody, part only; not given: Claudin 18.2 Fab, constant regions, linker, V domains shown, not shown: another chain or arm of the molecule; a dimerising Fc or GST; small tags and cut ends)
VHH: QSQLVESGGGLVQPGGSLRLSCAASGFAFRRYTMSWVRQAPGKGLEWVSTITHNGSITTYAESAQGRFTISRDNAKNTLYLQMNSLKPEDTAVYYCAQGGGSNYYRESWGQGTQVTVSS
In turn, B3 registered an EC50 (read off the curve) in assay [2] of 1 nM.

B4: 42p155 chimeric monospecific antibody (antibody, V domains shown)
VH: B3 VHH with Q1P, R31S, S56A
notes: VHH-chimeric monospecific antibody (cAb), detected with anti-human IgG; also called 42pl55; not shown: human constant part (Fc) of the chimeric VHH antibody
With B4, the midpoint of the response in assay [3], the EC50, lay at 0.9 nM. In assay [4], this molecule came in with a Kd of 86.9 nM, a koff of 0.0451 s⁻¹ and a kon of 519000 M⁻¹ s⁻¹. In assay [1], the “EC50 (read off the curve)” value is approximately 0.3 nM. In assay [5], this molecule displayed an EC50 of 1.73 nM.

B5: 2p1294 chimeric monospecific antibody (antibody, V domains shown)
VH: B3 VHH with S2V, A28S, T50A, T52S, H53D, S56A, A61T
notes: as for B1
As to B5, in assay [1], the “EC50 (read off the curve)” value was approximately 0.3 nM.

Source of the values: US20240247073A1 (CONCEPT TO MEDICINE BIOTECH, published 2024).
